9 variants from IntAct's records for PubMed 20300064 can be followed below.

First the molecules themselves.
B1: Rho guanine nucleotide exchange factor 11 (Homo sapiens), O15085 (parent)
chain: MSVRLPQSIDRLSSLSSLGDSAPERKSPSHHRQPSDASETTGLVQRCVIIQKDQHGFGFTVSGDRIVLVQSVRPGGAAMKAGVKEGDRIIKVNGTMVTNSSHLEVVKLIKSGAYVALTLLGSSPSSMGISGLQQDPSPAGAPRITSVIPSPPPPPPLPPPQRITGPKPLQDPEVQKHATQILRNMLRQEEKELQDILPLYGDTSQRPSEGRLSLDSQEGDSGLDSGTERFPSLSESLMNRNSVLSDPGLDSPRTSPVIMARVAQHHRRQGSDAAVPSTGDQGVDQSPKPLIIGPEEDYDPGYFNNESDIIFQDLEKLKSRPAHLGVFLRYIFSQADPSPLLFYLCAEVYQQASPKDSRSLGKDIWNIFLEKNAPLRVKIPEMLQAEIDSRLRNSEDARGVLCEAQEAAMPEIQEQIHDYRTKRTLGLGSLYGENDLLDLDGDPLRERQVAEKQLAALGDILSKYEEDRSAPMDFALNTYMSHAGIRLREARPSNTAEKAQSAPDKDKWLPFFPKTKKSSNSKKEKDALEDKKRNPILKYIGKPKSSSQSTFHIPLSPVEVKPGNVRNIIQHFENNQQYDAPEPGTQRLSTGSFPEDLLESDSSRSEIRLGRSESLKGREEMKRSRKAENVPRSRSDVDMDAAAEATRLHQSASSSTSSLSTRSLENPTPPFTPKMGRRSIESPSLGFCTDTLLPHLLEDDLGQLSDLEPEPDAQNWQHTVGKDVVAGLTQREIDRQEVINELFVTEASHLRTLRVLDLIFYQRMKKENLMPREELARLFPNLPELIEIHNSWCEAMKKLREEGPIIKEISDLMLARFDGPAREELQQVAAQFCSYQSIALELIKTKQRKESRFQLFMQEAESHPQCRRLQLRDLIISEMQRLTKYPLLLESIIKHTEGGTSEHEKLCRARDQCREILKYVNEAVKQTENRHRLEGYQKRLDATALERASNPLAAEFKSLDLTTRKMIHEGPLTWRISKDKTLDLHVLLLEDLLVLLQKQDEKLLLKCHSKTAVGSSDSKQTFSPVLKLNAVLIRSVATDKRAFFIICTSKLGPPQIYELVALTSSDKNTWMELLEEAVRNATRHPGAAPMPVHPPPPGPREPAQQGPTPSRVELDDSDVFHGEPEPEELPGGTGSQQRVQGKHQVLLEDPEQEGSAEEEELGVLPCPSTSLDGENRGIRTRNPIHLAFPGPLFMEGLADSALEDVENLRHLILWSLLPGHTMETQAAQEPEDDLTPTPSVISVTSHPWDPGSPGQAPPGGEGDNTQLAGLEGERPEQEDMGLCSLEHLPPRTRNSGIWESPELDRNLAEDASSTEAAGGYKVVRKAEVAGSKVVPALPESGQSEPGPPEVEGGTKATGNCFYVSMPSGPPDSSTDHSEAPMSPPQPDSLPAGQTEPQPQLQGGNDDPRRPSRSPPSLALRDVGMIFHTIEQLTLKLNRLKDMELAHRELLKSLGGESSGGTTPVGSFHTEAARWTDGSLSPPAKEPLASDSRNSHELGPCPEDGSDAPLEDSTADAAASPGP

The variants in the first experiment derive from B1. To be noted: with rhoa_human RHOA.
In the case of I876M, the “effect of a mutation on the interaction” value is given as “disrupting interaction”.

With R872D, the “effect of a mutation on the interaction” value was “disrupting interaction”.

For the variant D873N, the “effect of a mutation on the interaction” value is listed as “disrupting interaction”.

The variants in the next experiment derive from B1. To be noted: with rhoa_human RHOA. This is another data set of the same source.
As for S748A, the “effect of a mutation on the interaction” value was “decreasing interaction”.

Regarding E741N, the “effect of a mutation on the interaction” value is on record as “decreasing interaction”.

The variants in another experiment derive from B1. To be noted: with rhoa_human RHOA. The source holds these as a separate data set.
On to R867Q, for which the “effect of a mutation on the interaction” value is “disrupting interaction”.

With R868G, the “effect of a mutation on the interaction” value is “disrupting interaction”.

Turning to L869A, the “effect of a mutation on the interaction” value is given as “disrupting interaction”.

Another experiment covers variants of B1. To be noted: with rhoa_human RHOA. The source holds these as a separate data set.
E928A: the “effect of a mutation on the interaction” value is “disrupting interaction”.
